Biological target: F241A IgG1 Fc fragment (human)
Assay: crystal structure

- stoichiometry N: 2
Substance: F241A IgG1 Fc fragment (domain or fragment)

Source: paper PMC4159253
